This series is described as follows: protein stability index of a GFP-peptide fusion (GPS, HEK-293T) (PSI 1-6); higher = more stable.
[1] abbreviates: treatment: DMSO, c terminus: a fixed tail appended.
The mark [2] stands for this setting: treatment: MLN4924 1 uM, 8 h, c terminus: a fixed tail appended.
The mark [3] stands for this setting: treatment: DMSO, c terminus: native.
Setting [4] is: treatment: MLN4924 1 uM, 8 h, c terminus: native.

± gives the standard deviation.
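Note: 24-mer peptide tiles fused after GFP, lentivirally expressed, FACS-sorted into six equal bins by GFP/DsRed ratio, decoded by Illumina sequencing, PSI is the read-weighted mean bin number.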

For the sequence YRDYGHSRRDESYSRGYRNRRSSR [RBMY1A1], the protein stability index is 4.75 ± 0.14 under setting [1] and 4.79 ± 0.12 under setting [2].

In the case of YSNLLVRDFRPTDQEEIKTLERYM [TENT5C], the protein stability index came out at 3.08 ± 0.22 under setting [1] and 3.35 ± 0.36 under setting [2].

As for AAKLLNVDPDNVVLCLLAADEDDD [GADD45A], the protein stability index by setting is: under setting [1], 3.68 ± 0.16; under setting [2], 3.94 ± 0.27.

Sequence TEKDLLEDGFGEHPFYHCLVAEVP [SAT1] yielded a protein stability index under setting [1] of 3.35 ± 0.32 and a protein stability index under setting [2] of 3.41 ± 0.37.

LTCSLSFLLCARSLLRGFLLQNEF [MCOLN1]: the protein stability index by setting is: under setting [1], 3.34 ± 0.44; under setting [2], 2.93 ± 0.46.

With PVRCAGDWLPRGLGWGGRGAAVCA [ALG2], the protein stability index under setting [1] turned out to be 2.57 ± 0.36 and the protein stability index under setting [2] is 2.25 ± 0.27.

Consider DFITLYQMASQSSASHYKLQVIKA [M1AP], for which the protein stability index reads like this: under setting [1], 2.63 ± 0.3; under setting [2], 2.44 ± 0.43.

Take FMSPCDKFRAKGRKPCKLMLQVVK [MCOLN1]: the protein stability index stood at 2.26 ± 0.26 under setting [1] and 2.38 ± 0.24 under setting [2].

Consider PTLDAPGGRALVVRKVPPGYSIKV [SMAD6], for which the protein stability index was 2.83 ± 0.17 under setting [1] and 3.17 ± 0.19 under setting [2].

As to RPSTYYELLGVHPGASTEEVKRAF [DNAJC4], the protein stability index was 3.48 ± 0.21 under setting [1] and 3.86 ± 0.23 under setting [2].

For QFHKQIAVMRGQILNLTQALKDNK [PI4K2A], the protein stability index runs as follows: under setting [1], 2.5 ± 0.36; under setting [2], 2.8 ± 0.35.

ALQPSPSIRLPLDAPLPGSKAKPK [TBC1D10A] showed a protein stability index under setting [1] of 4.19 ± 0.21 and a protein stability index under setting [2] of 4.32 ± 0.34.

As for ETQTQRGGEFQCGLEAASVYSDHT [RNF180], the protein stability index runs as follows: under setting [1], 2.33 ± 0.16; under setting [2], 2.2 ± 0.078.

For the sequence VKMDQKSKHLKEMYQELMEMCHKP [TRIM43], the protein stability index is, setting by setting: under setting [1], 3.03 ± 0.15; under setting [2], 3.13 ± 0.28.

LQLFHQDGTFSPVTLALFFVLYFL [CLCN6] gave a protein stability index under setting [1] of 2.45 ± 0.64 and a protein stability index under setting [2] of 2.13 ± 0.47.

As for LDNTKFRSHEGETAYIRVKVDGPR [SRSF1], the protein stability index by setting is: under setting [1], 3.73 ± 0.34; under setting [2], 3.49 ± 0.32.

As for PSHGEVGEHKDRIERQWGNLLGEG [ZSCAN9], the protein stability index under setting [1] was determined as 4.47 ± 0.19 and the protein stability index under setting [2] amounted to 4.47 ± 0.36.

Turning to HTCLMISCYKGHREIARYLLEQGA [FEM1A], the protein stability index worked out at 2.46 ± 0.5 under setting [1] and 2.38 ± 0.35 under setting [2].

Turning to EFFGSASQPAVELVSGSQSALGPP [CLINT1], the protein stability index stood at 3.96 ± 0.11 under setting [1] and 3.92 ± 0.51 under setting [2].

Take PETMTCRLSNNQRYLFLDGDSHYE [ZFYVE21]: the protein stability index under setting [1] worked out at 2.52 ± 0.45 and the protein stability index under setting [2] stood at 2.8 ± 0.33.

QPPDMASALTDRTSRAPSTYTYTS [RSPH3]: the protein stability index by setting is: under setting [1], 4.39 ± 0.17; under setting [2], 4.51 ± 0.15.

For the sequence HAVVEVEDVPLAAKLVDLPCVIES [TAF7L], the protein stability index was determined as 3.86 ± 0.28 under setting [1] and 4.03 ± 0.17 under setting [2].

With MEGLETAEGSNSESSDDDSEEAPS [SDE2], the protein stability index runs as follows: under setting [1], 5.51 ± 0.2; under setting [2], 5.51 ± 0.39.

Consider PPPDAAATAASSSASSPASVGDPC [SLC25A25], for which the protein stability index is, setting by setting: under setting [1], 5.39 ± 0.14; under setting [2], 5.58 ± 0.13.

On to VRVLESLLVSLVTTVVVFVASMVL [CLCN6], for which the protein stability index under setting [1] was found to be 3.13 ± 0.4 and the protein stability index under setting [2] came to 3.3 ± 0.34.

For the sequence LVLQTSEGKALQQYPSERELRGI [TRIM9], the protein stability index came to 3.01 ± 0.96 under setting [3] and 2.98 ± 0.54 under setting [4].

ALILHQRIHSGKKPYACDECAKAF [ZNF396]: the protein stability index reads like this: under setting [1], 2.11 ± 0.26; under setting [2], 2.84 ± 0.45.

For QETAKEEDGSVELESQVQKDGVAD [C18orf25], the protein stability index by setting is: under setting [1], 5.55 ± 0.24; under setting [2], 5.61 ± 0.34.

As to ELFPTGKQLEPLVAPLADGKVAVG [VPS39], the protein stability index reads like this: under setting [1], 3.84 ± 0.25; under setting [2], 3.8 ± 0.24.

For SQSPSVSQLSVLSLSGVMLTDVSP [PRAME], the protein stability index runs as follows: under setting [1], 3 ± 0.49; under setting [2], 3 ± 0.33.

Take IGGSGFLGQHMVEQLLARGYAVNV [NSDHL]: the protein stability index runs as follows: under setting [1], 2.16 ± 0.054; under setting [2], 2.23 ± 0.2.

As to LRADNAFMLLTQARLFDEPQLASL [BTBD1], the protein stability index runs as follows: under setting [1], 2.46 ± 0.85; under setting [2], 2.34 ± 0.47.

For the sequence FYRYKMPRLIAKVEGKGNGIKTVI [EIF5], the protein stability index runs as follows: under setting [1], 2.28 ± 0.45; under setting [2], 2.26 ± 0.23.

On to PPPSAPASEYCPGKLSWGTMARAL [WDR88], for which the protein stability index under setting [1] is 3.02 ± 0.24 and the protein stability index under setting [2] worked out at 2.97 ± 0.4.

In the case of GYPAAPPAVPFAPHFLQGGPFPLP [TBX6], the protein stability index is 2.52 ± 0.58 under setting [1] and 2.7 ± 0.35 under setting [2].

In turn, LSAGSPPVPPGWNPNSSSGKGSGG [DLX1] yielded a protein stability index under setting [1] of 4.86 ± 0.24 and a protein stability index under setting [2] of 4.72 ± 0.1.

With GATALHFAAEAGHIDIVKELIKWR [FEM1B], the protein stability index runs as follows: under setting [1], 2.39 ± 0.35; under setting [2], 2.43 ± 0.33.

For the sequence DVKCYQGTDIVRGCDPLVKPVGRQ [ADAMTSL2], the protein stability index is 3.68 ± 0.3 under setting [1] and 3.88 ± 0.27 under setting [2].

On to IIEELGEQRDQLERTKSRLVNTSE [VTI1B], for which the protein stability index was found to be 4.57 ± 0.41 under setting [1] and 4.63 ± 0.15 under setting [2].

With LQNQNFPYPVLFHNIFLLGGSSTS [NLN], the protein stability index is, setting by setting: under setting [1], 2.15 ± 0.92; under setting [2], 2.33 ± 0.4.

As for SVVLRRARGGAVSARYVLPDEAAR [DUSP5], the protein stability index by setting is: under setting [1], 3.56 ± 0.33; under setting [2], 3.55 ± 0.26.

In the case of YQAFRECTLETTVHASGWNKILVP [BCL2L13], the protein stability index is 1.93 ± 0.33 under setting [1] and 2.32 ± 0.22 under setting [2].

As to DNSLSSQNYISQKEDASEFQILKY [MIA2], the protein stability index is 3.94 ± 0.27 under setting [1] and 3.74 ± 0.6 under setting [2].

Turning to VTGREGFPTDAPYPTTLGKDRECQ [ZNF8], the protein stability index reads like this: under setting [1], 4.74 ± 0.13; under setting [2], 4.8 ± 0.32.

As to DPTGASIALFTARLHHPHKSVQHV [PTPN9], the protein stability index is, setting by setting: under setting [1], 2.37 ± 0.29; under setting [2], 2.64 ± 0.23.

Consider VGGEAVEVEEVENVQTEFPGEDEN [TRIM55], for which the protein stability index reads like this: under setting [1], 5.74 ± 0.2; under setting [2], 5.61 ± 0.34.

As to SKATFSRNIMNLIDIVAIIPYFIT [KCNA3], the protein stability index runs as follows: under setting [1], 3.16 ± 0.52; under setting [2], 3.32 ± 0.76.

Regarding IGAFLNLVVLRFLTMNSEDERRDA [KCNK9], the protein stability index is, setting by setting: under setting [1], 3.27 ± 0.77; under setting [2], 3.02 ± 0.6.

With GKNNEFSRLVAGEYLSFFDFSGLT [PSD2], the protein stability index is, setting by setting: under setting [1], 2.13 ± 0.41; under setting [2], 2.13 ± 0.32.

For the sequence GPASRMDPESERALQAPHSPSKTD [PBXIP1], the protein stability index worked out at 5.46 ± 0.24 under setting [1] and 5.34 ± 0.23 under setting [2].

Turning to RTMCAVLGLVARQEDSGLRDHSVR [AUP1], the protein stability index is, setting by setting: under setting [1], 2.43 ± 0.33; under setting [2], 2.76 ± 0.26.

Take GSGYEKLGPSRDPDPLNICVFILL [RTP4]: the protein stability index under setting [1] amounted to 3.15 ± 0.2 and the protein stability index under setting [2] came to 2.45 ± 0.68.

As for IGTMAGITTPIIDTFKVPKEMFTV [SLC6A17], the protein stability index reads like this: under setting [1], 2.45 ± 0.3; under setting [2], 2.71 ± 0.24.

With SFEHRVRGVRRTASTPTPDDKLFQ [CPN1], the protein stability index came to 4.3 ± 0.31 under setting [1] and 4.37 ± 0.3 under setting [2].

For the sequence CFFRDHSYQEEAAMELKVEDPFYW [MOG], the protein stability index under setting [1] was determined as 3.04 ± 0.23 and the protein stability index under setting [2] is 3.02 ± 0.24.

Sequence SGLIEIQSYPLCIYLINQKWFGRK [SLC22A15] showed a protein stability index under setting [1] of 2.47 ± 0.59 and a protein stability index under setting [2] of 2.19 ± 0.2.

ILSKMPKPKPPPNSEGEQGPNGSQ [CCNC]: the protein stability index under setting [1] came to 5.07 ± 0.23 and the protein stability index under setting [2] is 5.1 ± 0.12.

RRFSSEDLEDPLGGLLSYDEGGIT [FBF1]: the protein stability index by setting is: under setting [1], 4.57 ± 0.21; under setting [2], 4.56 ± 0.16.

In the case of RVRKEAMMGLAQIYKKYALQSAAG [PDS5B], the protein stability index is, setting by setting: under setting [1], 2.2 ± 0.37; under setting [2], 2.14 ± 0.34.

KNTEVSSMECEKNLYWICNKPYK [CD69]: the protein stability index runs as follows: under setting [3], 2.97 ± 0.2; under setting [4], 2.86 ± 0.61.

Consider PPSVLISKNEVGIFTTPNFDETSS [KMT2E], for which the protein stability index runs as follows: under setting [1], 4.09 ± 0.12; under setting [2], 4.33 ± 0.069.

On to ANGGAICAVTFFTILLSYGVILHS [OR4A15], for which the protein stability index worked out at 2.79 ± 0.25 under setting [1] and 2.84 ± 0.31 under setting [2].

Take SLLDVQRVPSFESFEDDCSQSLCL [ETS2]: the protein stability index runs as follows: under setting [1], 3.9 ± 0.53; under setting [2], 3.67 ± 0.54.

Regarding AQVPPAAPHHHHHHSHSGPEISRI [PLK2], the protein stability index came out at 4.09 ± 0.073 under setting [1] and 4.1 ± 0.13 under setting [2].

For LRDPATITTLRVPVLRPMDLMVEA [PPP2R2B], the protein stability index is, setting by setting: under setting [1], 2.85 ± 0.15; under setting [2], 2.94 ± 0.37.

On to RLWGIRKNRPAMNYDKLSRSIRQY [SPDEF], for which the protein stability index by setting is: under setting [1], 2.4 ± 0.25; under setting [2], 2.4 ± 0.45.

For the sequence EDEGFVREEEDRALPENEFKKQIW [KCNA4], the protein stability index by setting is: under setting [1], 5.18 ± 0.17; under setting [2], 5.19 ± 0.2.

The sequence DKDVRLLVACCLADIFRIYAPEAP [PDS5B] showed a protein stability index under setting [1] of 3.08 ± 0.48 and a protein stability index under setting [2] of 3.02 ± 0.08.

Take GSPVSSWILLAESNSADDETDDPR [OAS1]: the protein stability index runs as follows: under setting [1], 5.02 ± 0.27; under setting [2], 4.99 ± 0.39.

For ARKLTAQRRASTVSSVTQVEVDEN [NET1], the protein stability index turned out to be 5.15 ± 0.39 under setting [1] and 5.14 ± 0.33 under setting [2].

Regarding MTPDIHELVENIKSVLKSDEEHME [FAM189A2], the protein stability index reads like this: under setting [1], 4.72 ± 0.24; under setting [2], 4.39 ± 0.66.

The sequence FILGRLCVPVFANMSREPFSTRAL [SOAT2] registered a protein stability index under setting [1] of 2.94 ± 0.56 and a protein stability index under setting [2] of 2.56 ± 0.52.

Source of the values: the supplement of paper PMC10567573.
